This note sets out measurements from a protein production outcome set (Wang et al. 2014).
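Also: failed if final PepcDB status was selected cloned or expressed and not failed if soluble or beyond.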

This data set is described as follows: label from the status in PepcDB records.
On to “MEEPRRLGGRYELGPVLGRGGMAEVYHAHDTRLGRQVAVKTLRADLARDPSFQARFRREAQSAASLNHPAIVAVYDTGEDYIDNVSIPYIVMEYVDGSTLRELLHSGRKLLPERTLEMTIGILQALEYSHRAGIVHRDIKPANVMLTRNGQVKVMDFGIARAMGDSGMTMTQTAAVIGTAQYLSPEQAKGEQVDARSDLYSTGCLLYELLTVRPPFVGDSPVAVAYQHVREEPQAPSVFDPEITPEMDAIVLKALVKDPDYRYQSADEMRVDIEACLDGQPVGATAAMGAMAAGGYGAYPDDQPTTALRSDGGGGATTMLPPMNPDDGGYGYDERPDRRRQQPRKKNTSTIFLVLAGVLVLVGAILIGKYAFSGDGGPGNDKVPVPAFIGLSKADAQQQADNIDLVLTFKQQECEDQPKGNICAQDPKQGTDVDKESTVNLVVSTGAPKVAVPNVIDKNIDEAKKQLEDKGFEVETKQTESSQDEGTILSQNPDPGKELEKGSTVTLEVAKAEEKATVPDVVGRTCDEAKAQVESGGDLTAVCTDQPTNDPNQVGKVISTTPQSSTQVDPGSKVTIVVGKAVEKTKVPEVRGKTLAEARQILQQSGFTNVQVAQGSPGDDNAKVFASNPQPGSEVDDPAATPITLMTVPGDGGNGNGGNGNGGAIAGLPGFGD”, for which the protein production result is given as “failed”.

Turning to “MEEQVLGQSHDCETAADKSDQKLQDVTLAKTTHWGKIKAMLEEKIDELSQGLHRVASDNAALTRSLQERSEMIVKISEERSKAEADVEKLKD”, the protein production result is “failed”.

Take “MEESDVLISLIEILKIHQKVIDYDKFKDPEDYTPAIRSLATLELMFEYLIKESNTIFENAAVIVYTIVAKHPFFNGNKRTGYEAMNFIIEDGGYGFTSTDEEMIEFIIRVATTENEMSIEEIKEWIIRHTEKILLEHHHHHH”: the protein production result is reported as “not failed”.

For the sequence “MEESSAAKIQLLKEFKFEKILKDDTKSKIITLYGKIRNEVALLLLEKTAFDLNTIKLDQLATFLQDTKLVENNDVFHWFLSTNFQDCSTLPSVKSTLIWPASETHVYKYSSQKKPMVCETPLMYLKVTKPFIETQRGPQIQWVENILTHKAEAERIVVEDPDPLNGFIVIPDLKWDRQTMSALNLMAIVHATDIASIRDLKYKHIPLLENIRNKVLTEVPKQFSVDKNQLKMFVHYLPSYYHLHVHILHVDHETGDGSAVGRAILLDDVIDRLRNSPDGLENVNITFNIGEQHFLFQPLTNMNA”, the protein production result was “not failed”.

With “MEFEVEYDILVIVLVAFYILAATRIAHVIGLPPGVVEIIMGAMLAFWGVKSTEVLTLLAAIGANLLLFMAGSEIDLALLRSILPQAVIVALVSALAPLALTALLHVYLGLSLTSSLVILASLSATSVALTYLLLSSYRLVRSRLGQLALASAMLLDLSGMIMLNIATASISPSLAFYIVILLAALLLYPLLPRLGGAPFEAEIRLITMTVIILGFLSDFVGVHSVLTSFILGVIASETVRTRVQLREKLESLATGFFTPFFFIASGMSIDPGIPLHYVALALAGGVALALARTYTVYFYFRLTGSSRRSSLIAASSTAMLLTVTIIAASVGFQLGLLDSLMYSVLVWIVVGTILGSFALVKMR”, the protein production result is “failed”.

As to “MEFLFILLPVFGIFAIGFIGQKTLKFDIPNLSKLTLYLMSPFLAFNTFYTNPLTMDYFYLAIYIFVLCLSLILLVSVISFLLGYNVQDRCALILASAFMNNGNYGTPVVLLVFGAAGLDIAVVLMVLQQLAMSTIGIYFAAKGSKDANGMKTVMTRVVRMPIAYGALLGLMLQLLHIPLPSALMTCVKLVGDAAIPTIMIVLGMQLAVISFRRIELDKVGIALVLKLLIAPFIAFGLTLILPVDEMTKQIMILLAAMPTAANTTLMAVQFDTKPDLVSSTTFISTVLSIITLPIVLYFLHPVF”, the protein production entry is “failed”.

For “MEFTTQHFIALAPMLITTITTVVVMLAIAWKRNHSQTFLLSTVGLNLALLSLLPALKVAPLAVTSLITIDKFACLYMAIILVATLACVTLAHAYLGEGAKGFPGNREELYLLLLMSALGGLVLVSANHLAGLFIGLELLSVPVYGLVAYAFFNKRSLEAGIKYMVLSAAGSAFLLFGMALLYADAGSLSFDQIGKALATTSMPSLVAQLGLGMMLVGLAFKLSLVPFHLWTPDVYEGAPAPVAAFLATASKVAVFAVVVRLFMLSPAASSGVLSTVLAVIAVASILIGNLLALTQSNLKRLLGYSSIAHFGYLVIALVASKGLALEAMGVYLVTYVITSLGAFGVITLMSSPYGGRDADALYEYRGLFWRRPYLTAVLTVMMLSLAGIPLTAGFIGKFYIIATGVESHLWWLVGALVIGSAIGVYYYLRVMVTLYLVEPNLRRHDAPLKWEQRTGGVMLLAIAILAFVLGVYPQPLLEMVQQAGLQLIG”, the protein production entry is recorded as “failed”.

With “MEGCVSNIMICNLAYSGKLDELKERILADKSLATRTDQDSRTALHWACSAGHTEIVEFLLQLGVPVNDKDDAGWSPLHIAASAGRDEIVKALLVKGAHVNAVNQNGCTPLHYAASKNRHEIAVMLLEGGANPDAKDHYDATAMHRAAAKGNLKMVHILLFYKASTNIQDTEGNTPLHLACDEERVEEAKFLVTQGASIYIENKEEKTPLQVAKGGLGLILKRLAEGEEASM”, the protein production entry is recorded as “not failed”.

In the case of “MEGDVYSGFGERYQMDGKLLQNFQKSFVQVQDILDQNRLLINEINQNHESKQADHLGRNVGLIRELNNNIRTVASLYGDLSHSFARSVDASSEGESTGTLKSDGKANNQKRFRSG”, the protein production result was “failed”.

With “MEGFVLAGTSSGVGKTVATLATLTALEDAGYQPQPAKAGPDFIDPSHHEALVDTPSRTLDPWLAGEDGMRRTYWRGTGDICVVEGVMGLYDGTKTSTAAVAEGLDLPVVLVVDAKAGMESVAATALGFAQYADRIGVDIEVAGILAQRAHGGRHADGIRDALPEDLTYFGRIPPMSDLEIPDRHLGLHMGSEAGLDRDALSTAAETIDIERLVETARAPPEVATTERNTGDSPADRRVAVAQDSAFCFIYPSVLERLRSEASVEPFSPVAGDSVPDADAIYLPGGYPELHGESLETGGTLDEIAVRAADGVPVYGECGGLMALSESLTTTDGDTYEMAGVLPADIEMQDRYQALDHVELEARADTVAATSGAHRRGHEFHYSAATLGSDASFAFDMVRGDGIDGEHDGLTEYSTIGTYCHCHGESGAFDRLLAVPSKDILEHHHHHH”, the protein production result is reported as “failed”.

As for “MEGGYKLNITKAIVVAIYIIVGAALGVIIIPEVVTDLGIHHHAVITNYYVDGFIGIIIFFIIFGLFINKVTYAFKQFEQLIMRRSAVEILFATIGLIIGLFISVMVSFILEMIGNSILNHFVPMIITIILCYLGFQFGLKKRDEMLMFLPENMARSMSNNIRRATPKIVDTSAIIDGRILDIIRCGFIDGDILIPQGVINELQVIADAKDSVKREKGQRGLDILNQLYDLDYPTRVIHPTQSHSDIDTLLIKLAQQYHAHVITTDFNLNKVCHVQGITALNVNDLSEAIKPNVHQGDQLSILLTKIGKEPGQGVGYLDDGTMVVVDNAKSYIGQQVNLEVVSLLQTSSGRIVFAKFVD”, the protein production result was “failed”.

“MEGSSSTIARKTWELENSILTVDSPDSTSDNIFYYDDTSQTRFQQEKPWENDPHYFKRVKISALALLKMVVHARSGGTIEIMGLMQGKTDGDTIIVMDAFALPVEGTETRVNAQDDAYEYMVEYSQTNKLAGRLENVVGWYHSHPGYGCWLSGIDVSTQRLNQQHQEPFLAVVIDPTRTVSAGKVEIGAFRTYSKGYKPPDEPVSEYQTIPLNKIEDFGVHCKQYYSLDVTYFKSSLDSHLLDLLWNKYWVNTLSSSPLLGNGDYVAGQISDLAEKLEQAESHLVQSRFGGVVPSSLHKKKEDESQLTKITRDSAKITVEQVHGLMSQVIKDELFNSMRQSNNKSPTDSSDPDPMITY”: the protein production result was “failed”.

For “MEGWDPNTKSTLTRIPLLTTKAGPRDGAAWTQRLKEEYKSLIAYTQMNKSNDNDWFRISASNPEGTRWTGKCWYVHNLLKYEFDLQFDIPITYPATAPELELPEIDGKTQKMYRGGKICLTVHFKPLWAKNCPRFGIAHALCLGLAPWLAAEIPILVDSGAIKHKDDAATSAES”, the protein production entry is listed as “failed”.

For “MEHEYQRAVTRVCVQTALLLLQHGAESTVVVQMAQRLGVALGVESVECALTANAVVLTTLSDNHCITTARKNTDKGINMQMVTDVQRIVIAVEHHLYELEIAQRKLDQLKPLKYNRWLVVFMIGLSCAAFAHLSSGDWIICGITIFMLKLLYDMLFAAIPAVGFALVFNVPPKALKYCAILAALGHVTRTLLLHINMPIVFATFFATCVIGFLGVHLSHRYLAHPKAFTVAAIIPMIPGVHAYKAMISMVQIHHFGFSDALFEQMISSFINTSFILGAIVFGLALPGLLFYRQKPVV”, the protein production result is given as “failed”.

With “MEHGTESFWTDIKRYEDILAKDPGSYCFAPLSELYRKVGLLDDAIMTARTGIGQHPEYVGGYMALGRACFEKGERTESRAALEKVVRVTPDNLLAQKLLSQIYVDAGESDLARRCLEIILSLSPGDLESKLMLDAMCRQPRENADRADDLFNEMGAAAAIDLEDESLLEEIEIIEELVDEVVDEEDLAAFTAHAPPPPLAEESFADVLLDEEPVANADVPSPRDVLSTGTVADLYIAQGFPKKALAIYRDLLDADPLNEDIRNRMVDLKKRIDEDEARARESVLAEAVSATDTTAQIQGDLTADREAFKEEAASGFAVESAHEVDIPLEVAVSAESSLNVAEEKEASAAHVVSALEGWLDSIRRIRQCRSVLH”, the protein production result was “failed”.

Regarding “MEHSGTSEVTGADTAGPDPQLAVTMGFTGFGKKARTFDLEAMFEQTRRTAVERSRKTLEAREKEEEMNREKELRKQIEDMEPAPSSSSAARERSQSSCRDTSSSDSESDDSSDSSDDELIGPPLPPKMVGESVTTVDEGTLGPLPPPLCEEGEDDDDDELDDEGEEDNPVQRIPDSHEITLRHGTKTVSALGLDPSGARLVTGGYDYDVKFWDFAGMDASFKAFRSLQPCECHQIKSLQYSNTGDMILVVSGSSQAKVIDRDGFEVMECIKGDQYIVDMANTKGHTAMLHTGSWHPKIKGEFMTCSNDATVRLWEVENPKKQKSVFKPRTMQGKKVIPTTCTYSRDGNLVAAACQNGSIQIWDRNLTVHPKFHYKQAHDPGTDTSCVAFSYDGNVLASRGGDDTLKLWDVRQFNKPLFSASDLPTLFPMTDCCFSPDDKLIVTGTSVQRGCGSGKLVFLERRTFQRVYEIHITDASVVRCLWHPKLNQIMVGTGNGLAKVYYDPNKSQRGAKLCVVKTQRKAKQAETLTQDYIITPHALPMFREPRQRSTRKQLEKDRLDPLKSHKPEPPVAGPGRGGRVGTHGGTLSSYIVKNIALDKTDDSNPREAILRHAKAAEDNPYWVSPAYSKTQPKTMFAQVESDDEESKNEPEWKKRKI”, the protein production entry is “failed”.

Regarding “MEHWNKTFCLEVKGDYACFTRPEMKVERVSYDVITPSAARGIFEAIFWKPAIRWRIRKIEVLNPIKWISVRRNEVGQTASERSDGIFIETARQQRAGLFLRDVAYRLHAELEFVPPSERPDAKRPVPESLQDGRETSELRKDENPGKYYAIFERRARKGQCFNQPYLGCREFSCEFRLVDDLANEPPPISETRNLGFMLYDLDFQKNLKEPPPAFFPACLEKGVIKVPDWESEEVRK”, the protein production result was “failed”.

As to “MEIASQEDHDMPIPLNTTFGGGGSHGHMIHHHDHHAANSAPPTHNNNNTTQPPPMPLHGNGHGNNYDHHHHQDPHHVGYNAIIKKPMIKYKECLKNHAAAMGGNATDGCGEFMPSGEDGSIEALTCSACNCHRNFHRKEVEGELAATAMSPYHQHPPHRKLMLNHQKIRSAMPHQMIMPIGVSNYRYMHNNSESEDFMEEDGVTTASRSLPNLPYNQKKRFRTKFTPEQKEKMLSFAEKVGWKIQRQEDCVVQRFCEEIGVKRRVLKVWMHNNKIHFSKKNNINLEDNDNEKINNLNNVDLSGNNDMTKIVP”, the protein production entry is “failed”.
